Assay results published in patent publication US20240209078A1 (Amgen, published 2024).

B1: MS 15-B12 CC × I2L × (G4Q)3 × scFc × (G4Q)3 × CH3 15-E11 CC × I2L (bispecific antibody)
chain: QVQLQESGPGLVKPSETLSLTCTVSGGSISSSSYFWGWIRQPPGKCLEWIGNIYYSGSSNYNPSLKSRVTISVDTSKNQFSLKLSSVTAADTAVYYCARLPRGDRDAFDIWGQGTMVTVSSGGGGQGGGGQGGGGQDIVMTQSPSSLSASVGDRVTITCRASQGISNYLAWYQQKPGKVPKLLIYAASTLQSGVPSRFSGSGSGTDFTLTISSLQPEDFATYYCQQSYSTPFTFGCGTKVEIKSGGGGQEVQLVESGGGLVQPGGSLKLSCAASGFTFNKYAMNWVRQAPGKGMEWVARIRSKYNNYATYYADAVKDRFTISRDDSKNTLYLQMNNLKTEDTAVYYCVRAGNFGSSYISYFAYWGQGTLVTVSSGGGGQGGGGQGGGGQQTVVTQEPSLTVSPGGTVTITCGSSTGAVTSGNYPNWIQKKPGQAPRGLIGGTKFLAPGTPARFSGSLEGGKAALTLSGVQPEDEAEYYCVLYYSNRWVFGSGTKLTVLGGGGQGGGGQGGGGQCPPCPAPELLGGPSVFLFPPKPKDTLMISRTPEVTCVVVDVSHEEPEVKFNWYVDGVEVHNAKTKPCEEQYGSTYRCVSVLTVLHQDWLNGKEYKCKVSNKALPAPIEKTISKAKGQPREPQVYTLPPSREEMTKNQVSLTCLVKGFYPSDIAVEWESNGQPENNYKTTPPVLDSDGSFFLYSKLTVDKSRWQQGNVFSCSVMHEALHNHYTQKSLSLSPGKGGGGQGGGGQGGGGQGGGGQGGGGQGGGGQCPPCPAPELLGGPSVFLFPPKPKDTLMISRTPEVTCVVVDVSHEEPEVKFNWYVDGVEVHNAKTKPCEEQYGSTYRCVSVLTVLHQDWLNGKEYKCKVSNKALPAPIEKTISKAKGQPREPQVYTLPPSREEMTKNQVSLTCLVKGFYPSDIAVEWESNGQPENNYKTTPPVLDSDGSFFLYSKLTVDKSRWQQGNVFSCSVMHEALHNHYTQKSLSLSPGKGGGGQGGGGQGGGGQQVQLVQSGAEVKKPGASVKVSCKASGYTFTNYWMNWVRQAPGQCLEWMGNIAYGVKGTNYNQKFQGRVTMTVDTSSSTAYMELSRLRSDDTAVYYCATRYFYVMDYWGQGTLVTVSSGGGGQGGGGQGGGGQDIQMTQSPSSLSASVGDRVTITCRASQDISNYLNWYQQKPGKVPKLLIYYTSRLHSGVPSRFSGSGSGTDFTLTISSLQPEDVATYYCVQYAQFPLTFGCGTKVEIKSGGGGQEVQLVESGGGLVQPGGSLKLSCAASGFTFNKYAMNWVRQAPGKGMEWVARIRSKYNNYATYYADAVKDRFTISRDDSKNTLYLQMNNLKTEDTAVYYCVRAGNFGSSYISYFAYWGQGTLVTVSSGGGGQGGGGQGGGGQQTVVTQEPSLTVSPGGTVTITCGSSTGAVTSGNYPNWIQKKPGQAPRGLIGGTKFLAPGTPARFSGSLEGGKAALTLSGVQPEDEAEYYCVLYYSNRWVFGSGTKLTVL
B2: MS 15-B12 CC × 6H10.09 × (G4) × heFc (A) * heFc (B) × (G4) × CH3 15-E11 CC × 6H10.09 (Seq ID 326 + 327) (bispecific antibody)
chain 1: not shown
chain 2: DKTHTCPPCPAPELLGGPSVFLFPPKPKDTLMISRTPEVTCVVVDVSHEDPEVKFNWYVDGVEVHNAKTKPCEEQYGSTYRCVSVLTVLHQDWLNGKEYKCKVSNKALPAPIEKTISKAKGQPREPQVYTLPPSRKEMTKNQVSLTCLVKGFYPSDIAVEWESNGQPENNYKTTPPVLKSDGSFFLYSKLTVDKSRWQQGNVFSCSVMHEALHNHYTQKSLSLSPGKGGGGQVQLVQSGAEVKKPGASVKVSCKASGYTFTNYWMNWVRQAPGQCLEWMGNIAYGVKGTNYNQKFQGRVTMTVDTSSSTAYMELSRLRSDDTAVYYCATRYFYVMDYWGQGTLVTVSSGGGGSGGGGSGGGGSDIQMTQSPSSLSASVGDRVTITCRASQDISNYLNWYQQKPGKVPKLLIYYTSRLHSGVPSRFSGSGSGTDFTLTISSLQPEDVATYYCVQYAQFPLTFGCGTKVEIKSGGGGSEVQLVESGGGLVQPGGSLKLSCAASGFTFNKYAMNWVRQAPGKGMEWVARIRSKYNNYATYYADAVKDRFTISRDDSKNTLYLQMNNLKTEDTAVYYCVRAGNFGSSYISYFAYWGQGTLVTVSSGGGGSGGGGSGGGGSQTVVTQEPSLTVSPGGTVTITCGSSTGAVTSGNYPNWIQKKPGQAPRGLIGGTKFLAPGTPARFSGSLEGGKAALTLSGVQPEDEAEYYCVLYYSNRWVFGSGTKLTVL
B3: CH3 15-E11 CC × I2L × (G4Q)3 × scFc × (G4Q)3 × MS 15-B12 CC × I2L (bispecific antibody)
chain: QVQLVQSGAEVKKPGASVKVSCKASGYTFTNYWMNWVRQAPGQCLEWMGNIAYGVKGTNYNQKFQGRVTMTVDTSSSTAYMELSRLRSDDTAVYYCATRYFYVMDYWGQGTLVTVSSGGGGQGGGGQGGGGQDIQMTQSPSSLSASVGDRVTITCRASQDISNYLNWYQQKPGKVPKLLIYYTSRLHSGVPSRFSGSGSGTDFTLTISSLQPEDVATYYCVQYAQFPLTFGCGTKVEIKSGGGGQEVQLVESGGGLVQPGGSLKLSCAASGFTFNKYAMNWVRQAPGKGMEWVARIRSKYNNYATYYADAVKDRFTISRDDSKNTLYLQMNNLKTEDTAVYYCVRAGNFGSSYISYFAYWGQGTLVTVSSGGGGQGGGGQGGGGQQTVVTQEPSLTVSPGGTVTITCGSSTGAVTSGNYPNWIQKKPGQAPRGLIGGTKFLAPGTPARFSGSLEGGKAALTLSGVQPEDEAEYYCVLYYSNRWVFGSGTKLTVLGGGGQGGGGQGGGGQCPPCPAPELLGGPSVFLFPPKPKDTLMISRTPEVTCVVVDVSHEEPEVKFNWYVDGVEVHNAKTKPCEEQYGSTYRCVSVLTVLHQDWLNGKEYKCKVSNKALPAPIEKTISKAKGQPREPQVYTLPPSREEMTKNQVSLTCLVKGFYPSDIAVEWESNGQPENNYKTTPPVLDSDGSFFLYSKLTVDKSRWQQGNVFSCSVMHEALHNHYTQKSLSLSPGKGGGGQGGGGQGGGGQGGGGQGGGGQGGGGQCPPCPAPELLGGPSVFLFPPKPKDTLMISRTPEVTCVVVDVSHEEPEVKFNWYVDGVEVHNAKTKPCEEQYGSTYRCVSVLTVLHQDWLNGKEYKCKVSNKALPAPIEKTISKAKGQPREPQVYTLPPSREEMTKNQVSLTCLVKGFYPSDIAVEWESNGQPENNYKTTPPVLDSDGSFFLYSKLTVDKSRWQQGNVFSCSVMHEALHNHYTQKSLSLSPGKGGGGQGGGGQGGGGQQVQLQESGPGLVKPSETLSLTCTVSGGSISSSSYFWGWIRQPPGKCLEWIGNIYYSGSSNYNPSLKSRVTISVDTSKNQFSLKLSSVTAADTAVYYCARLPRGDRDAFDIWGQGTMVTVSSGGGGQGGGGQGGGGQDIVMTQSPSSLSASVGDRVTITCRASQGISNYLAWYQQKPGKVPKLLIYAASTLQSGVPSRFSGSGSGTDFTLTISSLQPEDFATYYCQQSYSTPFTFGCGTKVEIKSGGGGQEVQLVESGGGLVQPGGSLKLSCAASGFTFNKYAMNWVRQAPGKGMEWVARIRSKYNNYATYYADAVKDRFTISRDDSKNTLYLQMNNLKTEDTAVYYCVRAGNFGSSYISYFAYWGQGTLVTVSSGGGGQGGGGQGGGGQQTVVTQEPSLTVSPGGTVTITCGSSTGAVTSGNYPNWIQKKPGQAPRGLIGGTKFLAPGTPARFSGSLEGGKAALTLSGVQPEDEAEYYCVLYYSNRWVFGSGTKLTVL
B4: MS 15-B12 CC × I2L × G4 × scFc × G4 × CH3 15-E11 CC × I2L_GQ (bispecific antibody)
chain: QVQLQESGPGLVKPSETLSLTCTVSGGSISSSSYFWGWIRQPPGKCLEWIGNIYYSGSSNYNPSLKSRVTISVDTSKNQFSLKLSSVTAADTAVYYCARLPRGDRDAFDIWGQGTMVTVSSGGGGQGGGGQGGGGQDIVMTQSPSSLSASVGDRVTITCRASQGISNYLAWYQQKPGKVPKLLIYAASTLQSGVPSRFSGSGSGTDFTLTISSLQPEDFATYYCQQSYSTPFTFGCGTKVEIKSGGGGQEVQLVESGGGLVQPGGSLKLSCAASGFTFNKYAMNWVRQAPGKGMEWVARIRSKYNNYATYYADAVKDRFTISRDDSKNTLYLQMNNLKTEDTAVYYCVRAGNFGSSYISYFAYWGQGTLVTVSSGGGGQGGGGQGGGGQQTVVTQEPSLTVSPGGTVTITCGSSTGAVTSGNYPNWIQKKPGQAPRGLIGGTKFLAPGTPARFSGSLEGGKAALTLSGVQPEDEAEYYCVLYYSNRWVFGSGTKLTVLGGGGCPPCPAPELLGGPSVFLFPPKPKDTLMISRTPEVTCVVVDVSHEEPEVKFNWYVDGVEVHNAKTKPCEEQYGSTYRCVSVLTVLHQDWLNGKEYKCKVSNKALPAPIEKTISKAKGQPREPQVYTLPPSREEMTKNQVSLTCLVKGFYPSDIAVEWESNGQPENNYKTTPPVLDSDGSFFLYSKLTVDKSRWQQGNVFSCSVMHEALHNHYTQKSLSLSPGKGGGGQGGGGQGGGGQGGGGQGGGGQGGGGQCPPCPAPELLGGPSVFLFPPKPKDTLMISRTPEVTCVVVDVSHEEPEVKFNWYVDGVEVHNAKTKPCEEQYGSTYRCVSVLTVLHQDWLNGKEYKCKVSNKALPAPIEKTISKAKGQPREPQVYTLPPSREEMTKNQVSLTCLVKGFYPSDIAVEWESNGQPENNYKTTPPVLDSDGSFFLYSKLTVDKSRWQQGNVFSCSVMHEALHNHYTQKSLSLSPGKGGGGQVQLVQSGAEVKKPGASVKVSCKASGYTFTNYWMNWVRQAPGQCLEWMGNIAYGVKGTNYNQKFQGRVTMTVDTSSSTAYMELSRLRSDDTAVYYCATRYFYVMDYWGQGTLVTVSSGGGGQGGGGQGGGGQDIQMTQSPSSLSASVGDRVTITCRASQDISNYLNWYQQKPGKVPKLLIYYTSRLHSGVPSRFSGSGSGTDFTLTISSLQPEDVATYYCVQYAQFPLTFGCGTKVEIKSGGGGQEVQLVESGGGLVQPGGSLKLSCAASGFTFNKYAMNWVRQAPGKGMEWVARIRSKYNNYATYYADAVKDRFTISRDDSKNTLYLQMNNLKTEDTAVYYCVRAGNFGSSYISYFAYWGQGTLVTVSSGGGGQGGGGQGGGGQQTVVTQEPSLTVSPGGTVTITCGSSTGAVTSGNYPNWIQKKPGQAPRGLIGGTKFLAPGTPARFSGSLEGGKAALTLSGVQPEDEAEYYCVLYYSNRWVFGSGTKLTVL

Experiments:
Test in all cases: cell-based or functional assay
[1] = biological target: T1, human CDH3 (Cadherin-3, P-Cadherin) (human, UniProt P22223 108-829)
human MSLN (mesothelin) [2] = biological target: T2, human MSLN (mesothelin) (human, UniProt Q13421 37-598)
[3] = biological target: T1, human CDH3 (Cadherin-3, P-Cadherin); remark: listed apart in the source
human MSLN (mesothelin) [4] = biological target: T2, human MSLN (mesothelin); remark: listed apart in the source
human CDH3 = human CDH3 (human, UniProt P22223 108-829)
human MSLN = human MSLN (human, UniProt Q13421 37-598)

Binder | cytotoxicity EC50, GSU KO MSLN cells [1] [pM] | cytotoxicity EC50, GSU KO CDH3 cells (human MSLN (mesothelin) [2]) [pM] | cytotoxicity EC50, HCT 116 KO MSLN cells [3] [pM] | cytotoxicity EC50, HCT 116 KO CDH3 cells (human MSLN (mesothelin) [4]) [pM] | EC50 GSU KO MSLN (cytotoxicity; cells CDH3+, MSLN-) (human CDH3) [pM] | EC50 GSU wt (cytotoxicity; cells CDH3+, MSLN+) (human CDH3) [pM] | Fold selectivity gap, GSU KO MSLN against GSU wt (human CDH3) [fold] | EC50 GSU KO CDH3 (cytotoxicity; cells CDH3-, MSLN+) (human MSLN) [pM] | EC50 GSU wt (cytotoxicity; cells CDH3+, MSLN+) (human MSLN) [pM] | Fold selectivity gap, GSU KO CDH3 against GSU wt (human MSLN) [fold]
B1 | 1720 | 2900 | 3.5 | 29.2 | – | – | – | – | – | –
B2 | – | – | – | – | 533 | 3.2 | 165 | 391 | 3.2 | 121
B3 | 3330 | 171 | 8.5 | 22.6 | – | – | – | – | – | –
B4 | 502 | 115 | 1 | 44.5 | – | – | – | – | – | –
